Experimental findings from the supplement of paper PMC9112550, “Optimization of the antimicrobial peptide Bac7 by deep mutational scanning” (BMC Biology, 2022) are described below.

The subject of the series is Escherichia coli TOP10. Nature of the series: shrunken log2 fold change of peptide-encoding DNA abundance (4.5 h post-induction vs induction); higher = less antimicrobial activity (less host growth inhibition). The conditions noted are these: time post-induction: 4.5 h; library: site-saturation at positions 5, 18, 19, 20.
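Further: peptides expressed intracellularly from a pBAD plasmid library in pooled LB shake-flask culture, induced with 0.3% L-arabinose, DNA abundance read by NGS, three biological replicates, DESeq2 with apeglm shrinkage.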

For the sequence RRIRERPPRLPRPRPRPNMRPRP, the “shrunken log2 fold change” value was found to be 0.131. To RRIRHRPPRLPRPRPRPEHQPRP belongs -0.291; to RRIRERPPRLPRPRPRPFMSPRP, -0.0685; to RRIRQRPPRLPRPRPRPILEPRP, -0.536.

Turning to RRIRMRPPRLPRPRPRPSDCPRP, the “shrunken log2 fold change” value was 0.206.

Take RRIRCRPPRLPRPRPRPEGEPRP: the “shrunken log2 fold change” value was 3.03. For RRIRDRPPRLPRPRPRPKAQPRP, the “shrunken log2 fold change” value was -0.1. To RRIRVRPPRLPRPRPRPPYDPRP belongs -0.0602.

For RRIRLRPPRLPRPRPRPCCAPRP, the “shrunken log2 fold change” value came to 0.694. As for RRIRCRPPRLPRPRPRPWALPRP, the “shrunken log2 fold change” value stood at 0.0591. For RRIRVRPPRLPRPRPRPNPPPRP the value was 0.231; for RRIRRRPPRLPRPRPRPMTSPRP, -0.00455. For RRIRMRPPRLPRPRPRPESQPRP the value was 2.59. For RRIRQRPPRLPRPRPRPAKVPRP the value was 0.325; for RRIRERPPRLPRPRPRPQFSPRP, -0.0998; for RRIRPRPPRLPRPRPRPFMGPRP, -0.448.

As to RRIRYRPPRLPRPRPRPHNQPRP, the “shrunken log2 fold change” value was -0.753.

On to RRIRHRPPRLPRPRPRPQYFPRP, for which the “shrunken log2 fold change” value is -0.439.

RRIRGRPPRLPRPRPRPRMLPRP: the “shrunken log2 fold change” value is 0.356.

As to RRIRQRPPRLPRPRPRPMKTPRP, the “shrunken log2 fold change” value turned out to be 0.0802. For the sequence RRIRKRPPRLPRPRPRPFFGPRP, the “shrunken log2 fold change” value is 0.304. To RRIRKRPPRLPRPRPRPCKSPRP belongs -0.0499; to RRIRSRPPRLPRPRPRPQWLPRP, -0.32.

For the sequence RRIRFRPPRLPRPRPRPTQNPRP, the “shrunken log2 fold change” value was 0.541. To RRIRIRPPRLPRPRPRPDRRPRP belongs -0.274. Consider RRIRLRPPRLPRPRPRPCDDPRP, for which the “shrunken log2 fold change” value was -0.189. For RRIRSRPPRLPRPRPRPAPWPRP the value was 0.528; for RRIRYRPPRLPRPRPRPTPGPRP, -0.0705; for RRIRCRPPRLPRPRPRPCEPPRP, -0.221. RRIRCRPPRLPRPRPRPWTRPRP: the “shrunken log2 fold change” value turned out to be 0.0156. For RRIRARPPRLPRPRPRPCQAPRP the value was 0.483; for RRIRWRPPRLPRPRPRPCHLPRP, -0.211; for RRIRKRPPRLPRPRPRPSKMPRP, 0.025. For RRIRLRPPRLPRPRPRPIKCPRP the value was -0.152; for RRIRNRPPRLPRPRPRPAFIPRP, -0.579; for RRIRKRPPRLPRPRPRPACPPRP, 0.664. Take RRIRGRPPRLPRPRPRPATYPRP: the “shrunken log2 fold change” value is 0.235. For RRIRCRPPRLPRPRPRPFYQPRP the value was -0.163. For RRIRWRPPRLPRPRPRPSQKPRP the value was -0.0621; for RRIRCRPPRLPRPRPRPINWPRP, -0.407; for RRIRYRPPRLPRPRPRPHVPPRP, -0.277. As to RRIRQRPPRLPRPRPRPHQGPRP, the “shrunken log2 fold change” value turned out to be 0.0866.

For RRIRQRPPRLPRPRPRPLLPPRP, the “shrunken log2 fold change” value amounted to 0.0127. For RRIRQRPPRLPRPRPRPEWKPRP the value was -0.00192; for RRIRQRPPRLPRPRPRPSVVPRP, 0.082. For RRIRHRPPRLPRPRPRPEHWPRP the value was 0.237; for RRIRNRPPRLPRPRPRPDDWPRP, 0.221. Turning to RRIRTRPPRLPRPRPRPQWCPRP, the “shrunken log2 fold change” value is -0.0353.

In the case of RRIRNRPPRLPRPRPRPHHSPRP, the “shrunken log2 fold change” value amounted to 0.0657. To RRIRFRPPRLPRPRPRPLKEPRP belongs -0.273; to RRIRCRPPRLPRPRPRPGYEPRP, -0.00917; to RRIRRRPPRLPRPRPRPNCRPRP, 0.563.

Take RRIRQRPPRLPRPRPRPNLTPRP: the “shrunken log2 fold change” value was -0.432.

Consider RRIRPRPPRLPRPRPRPTLFPRP, for which the “shrunken log2 fold change” value worked out at 0.2. For RRIRTRPPRLPRPRPRPFQWPRP, the “shrunken log2 fold change” value is -0.0875. To RRIRYRPPRLPRPRPRPNPVPRP belongs 0.000723; to RRIRFRPPRLPRPRPRPFYIPRP, -0.489; to RRIRYRPPRLPRPRPRPRALPRP, 0.0114. For RRIRSRPPRLPRPRPRPYVSPRP the value was -0.136.

Take RRIRPRPPRLPRPRPRPAKQPRP: the “shrunken log2 fold change” value came out at 0.0651. To RRIRIRPPRLPRPRPRPSRAPRP belongs -0.212. On to RRIRFRPPRLPRPRPRPFMQPRP, for which the “shrunken log2 fold change” value was -0.675. To RRIRVRPPRLPRPRPRPYYLPRP belongs -0.286; to RRIRMRPPRLPRPRPRPFEYPRP, -0.219; to RRIRLRPPRLPRPRPRPVDRPRP, 0.584. Turning to RRIRHRPPRLPRPRPRPTWCPRP, the “shrunken log2 fold change” value came to 0.582. For RRIRWRPPRLPRPRPRPHNTPRP, the “shrunken log2 fold change” value is -0.391. For RRIRKRPPRLPRPRPRPWMIPRP the value was 0.0508. For RRIRVRPPRLPRPRPRPELDPRP the value was 0.183; for RRIRVRPPRLPRPRPRPKHDPRP, -0.31. To RRIRARPPRLPRPRPRPAWTPRP belongs -0.0258; to RRIRMRPPRLPRPRPRPFWFPRP, 0.132; to RRIRDRPPRLPRPRPRPSKHPRP, -0.263. Regarding RRIRKRPPRLPRPRPRPVSYPRP, the “shrunken log2 fold change” value is -0.227. To RRIRLRPPRLPRPRPRPKSVPRP belongs 0.0155; to RRIRIRPPRLPRPRPRPNTQPRP, -0.295; to RRIRHRPPRLPRPRPRPCGWPRP, 0.353. With RRIRFRPPRLPRPRPRPCFRPRP, the “shrunken log2 fold change” value was -0.45. To RRIRGRPPRLPRPRPRPYRSPRP belongs -0.113. For RRIRNRPPRLPRPRPRPQTKPRP the value was 0.173; for RRIRCRPPRLPRPRPRPICSPRP, 0.0973; for RRIRKRPPRLPRPRPRPLWNPRP, 0.109.

In the case of RRIRKRPPRLPRPRPRPVIMPRP, the “shrunken log2 fold change” value came out at 0.137.

With RRIRMRPPRLPRPRPRPENAPRP, the “shrunken log2 fold change” value came to 0.0504.

For RRIRGRPPRLPRPRPRPYINPRP, the “shrunken log2 fold change” value was -0.151. For the sequence RRIRPRPPRLPRPRPRPFCGPRP, the “shrunken log2 fold change” value came out at 0.00967. Regarding RRIRQRPPRLPRPRPRPYINPRP, the “shrunken log2 fold change” value was -0.299. As to RRIRRRPPRLPRPRPRPEMKPRP, the “shrunken log2 fold change” value stood at 0.215. For RRIRKRPPRLPRPRPRPMHHPRP the value was -0.126; for RRIRSRPPRLPRPRPRPTIWPRP, 0.393. As for RRIRDRPPRLPRPRPRPMTTPRP, the “shrunken log2 fold change” value was -0.0624.
